# Biological target: wild-type TrkA, baculovirus-expressed, activated (autophosphorylated) (UniProt P04629)
protein,measurement,value
"SHP-2 (enzyme, UniProt Q06124 2-593, looked up, species assumed) Tyrosine-protein phosphatase non-receptor type 11: TSRRWFHPNITGVEAENLLLTRGVDGSFLARPSKSNPGDFTLSVRRNGAVTHIKIQNTGDYYDLYGGEKFATLAELVQYYMEHHGQLKEKNGDVIELKYPLNCADPTSERWFHGHLSGKEAEKLLTEKGKHGSFLVRESQSHPGDFVLSVRTGDDKGESNDGKSKVTHVMIRCQELKYDVGGGERFDSLTDLVEHYKKNPMVETLGTVLQLKQPLNTTRINAAEIESRVRELSKLAETTDKVKQGFWEEFETLQQQECKLLYSRKEGQRQENKNKNRYKNILPFDHTRVVLHDGDPNEPVSDYINANIIMPEFETKCNNSKPKKSYIATQGCLQNTVNDFWRMVFQENSRVIVMTTKEVERGKSKCVKYWPDEYALKEYGVMRVRNVKESAAHDYTLRELKLSKVGQGNTERTVWQYHFRTWPDHGVPSDPGGVLDFLEEVHHKQESIMDAGPVVVHCSAGIGRTGTFIVIDILIDIIREKGVDCDIDVPKTIQMVRSQRSGMVQTEAQYRFIYMAVQHYIETLQRRIEEEQKSKRKGHEYTNIKYSLADQTSGDQSPLPPCTPTPPCAEMREDSARVYENVGLMQQQKSFR",dephosphorylation of 32P-autophosphorylated Trk in vitro,approximately 5-fold dephosphorylation
